Measurements as given in patent US20130273053.

Molecular target: ST-pro-factor D-His (UniProt P00746)
Sequence (P00746 21-253): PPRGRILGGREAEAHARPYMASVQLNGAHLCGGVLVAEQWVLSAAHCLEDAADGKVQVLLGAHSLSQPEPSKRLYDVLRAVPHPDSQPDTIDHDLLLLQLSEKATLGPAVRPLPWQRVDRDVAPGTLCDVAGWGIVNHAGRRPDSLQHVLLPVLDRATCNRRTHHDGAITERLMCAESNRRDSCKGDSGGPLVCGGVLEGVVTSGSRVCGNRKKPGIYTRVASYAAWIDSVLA

B1: recombinant MASP-1 (CCP1-CCP2-SP) fragment (enzyme, part only; not given: tags; R504Q status unclear)
chain, part: GNECPELQPPVHGKIEPSQAKYFFKDQVLVSCDTGYKVLKDNVEMDTFQIECLKDGTWSNKIPTCKIVDCRAPGELEHGLITFSTRNNLTTYKSEIKYSCQEPYYKMLNNNTGIYTCSAQGVWMNKVLGRSLPTCLPVCGLPKFSRKLMARIFNGRPAQKGTTPWIAMLSHLNGQPFCGGSLLGSSWIVTAAHCLHQSLDPKDPTLRDSDLLSPSDFKIILGKHWRLRSDENEQHLGVKHTTLHPKYDPNTFENDVALVELLESPVLNAFVMPICLPEGPQQEGAMVIVSGWGKQFLQRFPETLMEIEIPIVDHSTCQKAYAPLKKKVTRDMICAGEKEGGKDACSGDSGGPMVTLNRERGQWYLVGTVSWGDDCGKKDRYGVYSYIHHNKDWIQRVTGVRN
Which “cleavage of pro-factor D substrate, Western blot” value does the source give for B1 here?
The value was “only full length MASP-3 (lane 2) and the MASP-1 CCP1-CCP2-SP) fragment (lane 5) cleaved ST-pro-factor D-His6”.
